# The supplement of paper PMC7125110
# ± gives the standard error. Variants at the floor of the assay were thinned out.
# B1: glmS ribozyme (parent)
# chain: AUAAAAGCGCCAGAACUACAGAAAUGUAGUUGACGAGGAGGAGGUUUAUCGAAUUUUCGGCGGAUGCCUCCAAA
# Legend:
# Details in all cases: with glucosamine-6-phosphate
# glucosamine-6-phosphate [1] = variants of: B1; test: self-cleavage kobs at 160 uM GlcN6P; higher = faster cleavage; RNA array
# In short: (§1)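 Using a hybridised Cy3 probe at 37 °C, barcoded ribozyme variants transcribed in situ by E. coli RNA polymerase on sequenced MiSeq chips were monitored across tiles imaged over ~14 h. The flow contained glucosamine-6-phosphate from 40 μM to 10 mM in HEPES/KCl/Mg(OAc)2 buffer. Signals were normalised to baseline and to non-cleaving reference variants before per-tile medians were fit to one- or two-exponential decays to yield kobs. Weighted Michaelis–Menten fits across concentrations gave kcat and KM.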
# glucosamine-6-phosphate [2] = variants of: B1; test: self-cleavage kobs at 640 uM GlcN6P; higher = faster cleavage; RNA array
# In short: as §1
# glucosamine-6-phosphate [3] = variants of: B1; test: self-cleavage kobs at 2500 uM GlcN6P; higher = faster cleavage; RNA array
# In short: as §1
# glucosamine-6-phosphate [4] = variants of: B1; test: self-cleavage kobs at 10000 uM GlcN6P; higher = faster cleavage; RNA array
# In short: as §1
Variant,self-cleavage kobs at 160 uM GlcN6P (glucosamine-6-phosphate [1]) [s⁻¹],self-cleavage kobs at 640 uM GlcN6P (glucosamine-6-phosphate [2]) [s⁻¹],self-cleavage kobs at 2500 uM GlcN6P (glucosamine-6-phosphate [3]) [s⁻¹],self-cleavage kobs at 10000 uM GlcN6P (glucosamine-6-phosphate [4]) [s⁻¹]
AUAAAUGCGCCCGAACUACAGAAAUGUAGUUGACGAGGAGGAGGUUUACCGAAUUUUCGGCGGAGGGCUCCAAA [A6U A12C U49C U65G C67G],< 1e-05,–,–,–
AUAAACGGGCCAGAACUACAGAAAUGUAGUUGACGAGGAGGAGGUUUAUCGAAUUUUCGGCGGAUCCCUCCAAA [A6C C8G G66C],< 1e-05,< 1e-05,–,–
AUAAAUGAGCCAGAAAUACAGAAAUGUAGUUGACGAGGAGGAGGUUUAUCGAAUUUUCGGCGGAUGCCUCCAAA [A6U C8A C16A],< 1e-05,–,–,–
AUAAAUGCGCCAGAACUACAGAAAUGUAGUUGAAGAGGAGGAGGUUUAUCGAAUUUUCGGCGCAUGCCUCCAAA [A6U C34A G63C],< 1e-05,< 1e-05,< 1e-05,–
AUAAACGCGCCAGGACUACAGAAAUGUACUUGACGAGGCGGAGGUUUAUCGAAAUUUCGGCGGAUGCCUCCAAA [A6C A14G G29C A39C U54A],< 1e-05,< 1e-05,–,–
AUAAAGGCGCCAGAACUACAGAAAUGUAGUUGACGAGGAGGAGGUUUAUCGACUUUUCGGCGAGUGCCUCCAAA [A6G A53C G63A A64G],< 1e-05,< 1e-05,–,–
AUAAAGGCGCCAGAAUUACAGAAAUGUAGUUGACGAGGCGGAGGUUUAUCGAAUUUUCGGCGGAUGCCUCCAAA [A6G C16U A39C],< 1e-05,–,–,6.06e-05 ± 9e-06
AUAAACGCGCCAGAACUACAGAAAUGUACUUGACGAGGAGGAGGUUUAUCGAAUUUUGGGCGGAUGCCUCAAAA [A6C G29C C58G C71A],6.35e-05 ± 1.9e-05,0.000108 ± 4.5e-05,–,–
AUAAAGACGCCAGAACUACAGAAAUGUAGUUGACGAGGAGGACGUUUAUCGAAUUUUCGGCGGAUGCCUCCAAA [A6G G7A G43C],< 1e-05,< 1e-05,< 1e-05,< 1e-05
AUAAAUGCGUCAGAACUACAGAAAUGUAGUUGACGAGGAGGAGGUUUAUCGAAUUUUCGGCGGAUGCCUCCAAA [A6U C10U],< 1e-05,–,< 1e-05,–
AUAAAGGCGCCAGAACUACAGAAAUGUAGUUGACGAGGAGGAGGUUUAUCGAAUUUUCGGCGGAUGUCUCUAAA [A6G C67U C71U],< 1e-05,–,–,–
AUAAAGGCGCCAGAACUACAGAAAUGUAGUUGACGAGGAGGAUGUUUAUCGAAUUUUCGGCGGACGCCUCCAAA [A6G G43U U65C],< 1e-05,< 1e-05,< 1e-05,–
AUAAACGCGCCAGAACUACAGAAAUGUAGUUGACGAGGAUGAGGUUUAUCGAAUUUUCGGAGGAUGCCUCCAAA [A6C G40U C61A],< 1e-05,–,< 1e-05,< 1e-05
AUAAACGAGCCAGAACUACAGAAAUGUAGUCGACGAGGAGGAGGUUUAUCGAAUUUUCGGCGGAUGCCUCCAAA [A6C C8A U31C],< 1e-05,–,< 1e-05,–
AUAAACGCGCCAGAACUACAGAAAUGUAGUUGACGAGCAGGAGGUUUAUCGAAUUUUCGGCGGAUGCCUCCAAA [A6C G38C],< 1e-05,< 1e-05,–,–
AUAAACGAGCCAGAACUACAGAAAUGUAGUUGACGAGGAGGAGGUUUAUCGAAUUUUCGGCGGAUGACUCCAAA [A6C C8A C67A],< 1e-05,< 1e-05,< 1e-05,< 1e-05

Variant,self-cleavage kobs at 160 uM GlcN6P (glucosamine-6-phosphate [1]) [s⁻¹],self-cleavage kobs at 640 uM GlcN6P (glucosamine-6-phosphate [2]) [s⁻¹],self-cleavage kobs at 2500 uM GlcN6P (glucosamine-6-phosphate [3]) [s⁻¹],self-cleavage kobs at 10000 uM GlcN6P (glucosamine-6-phosphate [4]) [s⁻¹]
AUAAAUGCGCAAUAACUACAGAAAUGUAGUUGACGAGGAGGAGGUUUAUCGAAUUUUCGGCGGAUGCCUCCAAA [A6U C11A G13U],< 1e-05,–,–,–
AUAAAGGCGCCAGAACUACAGAAAUGUAGUUGACGAGGAGGCGGUUUAUCGAAUUUUCGGCGGAUGCCUCCAAA [A6G A42C],< 1e-05,< 1e-05,< 1e-05,< 1e-05
AUAAAUGCGCCCGAACUACAGAAAUGUAGUUGACGAGGAGGAGGUUUAUCGAUUUUUCGGCGGAUGCCUCCAAA [A6U A12C A53U],< 1e-05,3.14e-05 ± 1.3e-05,4.17e-05 ± 1.6e-05,–
AUAAAGGCGCCAGAACUACAGAAAUGUAGUUGACGUGGAGAAGGUUAAUCGAAUUUUCGGCGGAUGGCUCCAAA [A6G A36U G41A U47A C67G],< 1e-05,< 1e-05,< 1e-05,–
AUAAAUGCGACAGAACUACAGAAAUGUAGUUGACGAGGGCGAGGUUUAUCGAAUUUUCGGGGGAUGGCUCCAAA [A6U C10A A39G G40C C61G C67G],< 1e-05,< 1e-05,< 1e-05,–
AUAAACGCGCCAGAACUACAGAAAUGUAGUUGACCAGGAGAAGGUUUAUCGAAUUUUCGGCAGAUGCCUCCAAA [A6C G35C G41A G62A],< 1e-05,< 1e-05,–,–
AUAAAGGCGCCCGAACUACAGAAAUGUAGUUGACGAGGAAGAGGUUUAUCGAAUUUUCGGCGGAUGCCUCCAAA [A6G A12C G40A],< 1e-05,< 1e-05,< 1e-05,–
AUAAAGGCGCCAGAACUACAGAAAUGUAGGUGAGGAGGAGGAGGUUUAUCGAAUUUUCGGCGGAUGCCUCCAAA [A6G U30G C34G],< 1e-05,–,–,–
AUAAACGCGCCAGAACUACAGAAAUGUAGUUGAUGAGGAGGAGGUUUAUCGAAUUCUCGGCGGAUGCCUCCAAA [A6C C34U U56C],< 1e-05,–,–,–
AUAAAGGCGGCAGAACUACAGAAAUGUAGUUGACGAGGAGGAGGUGUAUCGAAUUUUCGGCGGAUGCCUCCAAA [A6G C10G U46G],< 1e-05,< 1e-05,< 1e-05,–
AUAAACGCGCCAGAACUACAGAAAUGUAGUUGACGGGGAGGAGGUUGAUCGAAUUUUCGGCGGAUGCCUCCAAA [A6C A36G U47G],< 1e-05,< 1e-05,–,–
ACAAAAGCUCCAGAACUACAGAAAUGUAGUUGACGAGGAGGAGGUUUAUCGAAUUAUCGGCGGAUGCCUCUAAA [U2C G9U U56A C71U],< 1e-05,< 1e-05,–,–
AUAAACGCGCCAGAUCUACAGAAAUGUAGUUGACGAGGAGGAGGUUUAUCGAAUUUUCGGCGGAUGCCUCCAAA [A6C A15U],< 1e-05,–,–,–
AUAAAGGCGCCAGAACUACAGAAAUGUAGUUGAGGAGGAGGAGGUUUAUCUAAUUUUCGGCGAAUGCCUCCAAA [A6G C34G G51U G63A],< 1e-05,< 1e-05,< 1e-05,–
AUAAAUGCGCCAGGUCUACAGAAAUGUAGUGGACGAGGAGGAGGUUUAUCGAAUGUUCGGCGGAUGCCUCCAAA [A6U A14G A15U U31G U55G],< 1e-05,< 1e-05,< 1e-05,–
AUAAAGGCGCCAGAACUACAGAAAUGUAGUUGACGAGGAGGAGGUUUAUCGAAUUUUCGGCGGGUGGCUCCAAA [A6G A64G C67G],< 1e-05,< 1e-05,< 1e-05,–
